Measured values published in patent publication US20070166299A1, “TREATMENT FOR EMBOLIC STROKE” (priority 2005, published 2007).
“Also recorded” adds a separate entry of the source.

Tests used:
[1] = test system: small clot embolic strokes in rabbits; details: previous studies; cited from earlier work
[2] = test system: small clot embolic strokes in rabbits; assay: rabbit small clot embolic stroke model (RSCEM), quantal analysis of behavior; assay type: in vivo
Excerpt: The invention used a rabbit small clot embolic stroke model (RSCEM) that reproduces many facets of human AIS including a well-defined clinical endpoint. The RSCEM utilizes administration of a suspension of small blood clots to induce strokes, and behavioral deficits that can be measured quantitatively. Moreover, the RSCEM is useful to conduct studies testing the effects of single drugs or drug combinations such as a neuroprotective agent (e.g., NXY-059) plus a thrombolytic (Tenecteplase, Alteplase, Desmoteplase and the like). Since it is likely that a drug combination will be used for patient management it is important to determine whether there are any interactions (positive or negative) between the compounds when administered following embolic strokes.
Methods: Male New Zealand white rabbits were anesthetized using halothane (5% induction, 2% maintenance by facemask), the bifurcation of the right carotid artery was exposed and the external carotid was ligated just distal to the bifurcation, where a catheter was inserted into the common carotid and secured with ligatures. The incision was closed around the catheter with the distal ends left accessible outside the neck; the catheter was filled with heparinized saline and plugged with an injection cap. Rabbits were allowed to recover from anesthesia for a minimum of 3 h until they awoke and behaved normally.
For the RSCEM, microclots were prepared from blood drawn from a donor rabbit and allowed to clot at 37° C. All rabbits in the study received injections of the same sized microclots. For embolization, clot particles were rapidly injected through the carotid catheter and both the syringe and catheter were flushed with 5 ml of normal saline. […]
Quantal Dose-Response Analysis: For the RSCEM, a quantal dose-response data analysis technique was used. […] The P50 values are then calculated. […] The data were analyzed using the t-test, which included the Bonferroni correction where appropriate. […]

B1: Tenecteplase: thrombolytic agent supplied by Genentech as a lyophilized cake, the formulation used clinically (protein, UniProt P00750 36-562, looked up, variant T103N N117Q K296A H297A R298A R299A)
Tissue-type plasminogen …: SYQVICRDEKTQMIYQQHQSWLRPVLRSNRVEYCWCNSGRAQCHSVPVKSCSEPRCFNGGTCQQALYFSDFVCQCPEGFAGKCCEIDTRATCYEDQGISYRGNWSTAESGAECTNWQSSALAQKPYSGRRPDAIRLGLGNHNYCRNPDRDSKPWCYVFKAGKYSSEFCSTPACSEGNSDCYFGNGSAYRGTHSLTESGASCLPWNSMILIGKVYTAQNPSAQALGLGKHNYCRNPDGDAKPWCHVLKNRRLTWEYCDVPSCSTCGLRQYSQPQFRIKGGLFADIASHPWQAAIFAAAAASPGERFLCGGILISSCWILSAAHCFQERFPPHHLTVILGRTYRVVPGEEEQKFEVEKYIVHKEFDDDTYDNDIALLQLKSDSSRCAQESSVVRTVCLPPADLQLPDWTECELSGYGKHEALSPFYSERLKEAHVRLYPSSRCTSQHLLNRTVTDNMLCAGDTRSGGPQANLHDACQGDSGGPLVCLNDGRMTLVGIISWGLGCGQKDVPGVYTKVTNYLDWIRDNMRP
In the case of B1, the therapeutic window [1] is listed as 3 h, the P50 ([2]; Tenecteplase 0.9 mg/kg IV bolus, 1 hour following embolization) is listed as 2.76 ± 0.37 mg and the “increase of P50 over control” value ([2]; Tenecteplase 0.9 mg/kg, 1 hour following embolization) is listed as 130%. For the same molecule, the “P50 compared to control” value ([2]; Tenecteplase 0.9 mg/kg, 6 hours following embolization) was “did not increase the P50 compared to control; also recorded: neither Tenecteplase, nor NXY-059, significantly (p>0.05) affect P50 values”.
